Source: the DeepSol protein solubility set

Experiment: soluble on expression in E. coli; label from the status in PepcDB or PDB records

With “MGSDKIHHHHHHMSEIWRQCKGERHIRPLQGRLVRLVESQEQVATLQLVDTLEEQALLEELLESSKPPVPADAEPLHYLLKTPFRYPPLRWGSRFGRRHEPSLFYAALKLETAMAESAYYRCVLWSGMVVPPPSGRILSEHASFEAGWKVERGIRLQAPPFSDHEAALTDIADYRAPQELGSAMRSAGVQAFEYRSARCPERGCNVALFTPAAFTEKRPRNLTPWLCETTAGYVAFKPAHVPGSPKIFSWELFLVDGKLPHPA” as the sequence, how does the “soluble on expression in E. coli” value read?
Its value is “not soluble”.

With “MGSDKIHHHHHHMSEKQTTILIINMASDFGGGEIQTEELMLNLTNYNICFFGKSSGKFIPRLKEKAPHIKIVNLWEMLKLVFCCSSLIIHAQDGRGAHIAGFLKKISGRPVVITRHVSFPFKRKFSLSSYKNADMLVGVSQQVTENLKLLNSNCRTIYGCIKPLLENAEFEQRYFVKKHILAIAHIGNLQAVKNFQLTLSLAKNFSQIQFFIVGSGELEQELKQQAINLPNITFIPFTPYIGSVFKKVDLQIVPSHSEGLGAVILEGYQYRVSVIAHQTGGISEIVQNEKTGFLVENNDPMIYHKILTTLLDNPQKLCELKQNVERYIFEHDFSARRMALEYEQVYSAILANRTQK” as the sequence, how does the “soluble on expression in E. coli” value read?
The value was “not soluble”.

Which “soluble on expression in E. coli” value does the source give for “MGSDKIHHHHHHMSELLAIPLKRTLEVDFATELSKLIDTTSFQTASFFQSDILKVVDARNNAIAPDISIDGLSALKEYYVILLQLEKKFPNNQIEFTWFQTLSQKSRGTSQYSLQWEKLTIIYNIGCMYSLLALNSNNDAAESLKTSCLYFQNAAGCFKHVLDHQKNLETIPVVDDATLNALTSLMLAQAQECFWFKAVQDKHKDSLIAKLSQQIVDFYCEAINDAQRGKLIRSDWINHLKAKKAYFSAVTYYRIALSFNEKKQFGNVVKALQMGLQFINESTLSSQAKFKTVVESSLKEAQRDNEFIYLQEVPSELPSIKPALMVKPSSSATLLPSIKKDETLFKDLIPIEVMEYCTAYNERQDEYVEQRVTNPLASLNKLLKESLTTFQIPQGLTKVSEAELSHYQASLNNLLINNKNVQVQLDNIEQILNEEAFTDNQLRLKHGTLNWTLPESSTTNTAYYEKLKKLRGYLDEGSAIDKQTNELFQSIDKNLIGSEIRLPESNDPLTNKIKMIIQERNDYIDRTRRKSSEYRILPKIITSYKKNGTVDFEPIFIGHLKYFDEDLRYVNSTKEENIKLIEEVNLSKKNNPGRSGIEPKKMVRIDPRELYIEDLRYSFKLLDEVKENLSAGTAFYENLITSTSNLYNEVQEYDTARRAEKARLDKSLTFEDQ” here?
Its value is “not soluble”.

Which “soluble on expression in E. coli” value does the source give for “MGSDKIHHHHHHMSFKDIQADFIEAIRRPDLPCPHGIAPQRMGVYRELFFNNVSGFVNSGFPVLKSLYGEAQWQAQLRQFFTEHDCQNPLFIGIAGEFLAFLSARERQVDEPPFLLELAHYEWLELVVATAMEQGDEAAFDDTALAQQAYLDARLGLASHARVAQYHFEVEKISPQYQPDTPLPSPCYFCLYRDSDDEVSFLKLNPMTAQLLAVLEANTGIKYIELLQKMQALYPNFDGQQLREGIAQVLGQMAVRGVVVQKLQ” here?
Its value is “not soluble”.

With “MGSDKIHHHHHHMSGTLITSDVDVDAHGKQQAYLRVPHSVHRSAYGWIPVPIAVIRNGDGPTLVISAGVHGDEYEGQIAVATLIRTLDATDIRGRLILLPMVNVPAAEAGCRTSPIDAGNLNRLYPGDPKGMPSQMIAHFHEEVILPLADYAVDLHSGGSSLIYPATVMRGPSHSPQEEDGLATLVDAFDLPYTWVFQGGGGRDSTARTAMGAANRKGVINVMAELGGAGCVTPDVLHRTERGLRRILHAVGMLPGYVPDGAQGTRAVSVQGSVYAFETGVFEPLKSIGGDVVKGEAVAHIHHPETPGKAPDVVLSPHAGMVLAMRAMAQVRRGDALYQIAADAG” as the sequence, how does the “soluble on expression in E. coli” value read?
Its value is “not soluble”.

Which “soluble on expression in E. coli” value does the source give for “MGSDKIHHHHHHMSIIDLTKLEQKVATMWDSILTNSPFIHEVLDGKATKALYAIYMTETYHYTKHNAKNQALVGIMGKDLPGKYLSFCFHHAHEEAGHELMALSDIASIGFDREDVLSSKPLPATETLIAYLYWISATGNPVQRLGYSYWAENVYGYIDPVLKAIQSTLDLTPQSMKFFIAHSKIDAKHAEEVNEMLHEVCKTQEDVDSVVAVMENSLVLTARILDDVWKEYQLFQSGASDRYAFLRDNA” here?
Its value is “not soluble”.

Which “soluble on expression in E. coli” value does the source give for “MGSDKIHHHHHHMSIKTSNTDFKTRIRQQIEDPIMRKAVANAQQRIGANRQKMVDELGHWEEWRDRAAQIRDHVLSNLDAYLYQLSEKVTQNGGHVYFARTKEDATRYILQVAQRKNARKVVKSKSMVTEEIGVNHVLQDAGIQVIETDLGEYILQLDQDPPSHVVVPAIHKDRHQIRRVLHERLGYEGPETPEAMTLFIRQKIREDFLSAEIGITGCNFAVAETGSVCLVTNEGNARMCTTLPKTHIAVMGMERIAPTFAEVDVLITMLARSAVGARLTGYNTWLTGPREAGHVDGPEEFHLVIVDNGRSEVLASEFRDVLRCIRCGACMNTCPAYRHIGGHGYGSIYPGPIGAVISPLLGGYKDFKDLPYACSLCTACDNVCPVRIPLSKLILRHRRVMAEKGITAKAEQRAIKMFAYANSHPGLWKVGMMAGAHAASWFINGGKTPLKFGAISDWMEARDLPEADGESFRSWFKKHQAQEKKNG” here?
The value was “not soluble”.

For “MGSDKIHHHHHHMSILGLFGCDNGRNIAIICKNNPEICADLHKDSWCLAEKTQLIRDRYTLKDTTHPTGKQLYLQLTYLEDYSRCIELAAGVQHIIHTSRTADRARAFRLSTENLTQLQEQTRERQDPFMSYYQWTRFGDTQALNRLLEHENAGEVTDPFLLAQIATYYSNRDAIKSQQLYLKVLSEIQYDDFDVNWLLGLASTFRHTQQFDKTYMLTKANLLLTQQKYSEDKMLALLSNNKTLAAKLDKYAQTLIDALKNGNYSTSSVRKWLEPAPQILPAETITTEPVPEK”, which “soluble on expression in E. coli” value is on record?
The value was “not soluble”.

Which “soluble on expression in E. coli” value does the source give for “MGSDKIHHHHHHMSIPQQTDALDQAPSTAGCRVPYRVFTDRQYYDREQENIFKGNCWSFVGLEAEVPQAGDFKSTFVGETPVILTRDSDGSLHVVVNRCAHRGALVCREMRGNRASLECVYHQWAYDLKGNLIGVPFRRGLKGQGGMPGDFDMSQHNLRQLRTESVGGLVFASFSETVESCRDFLGPIVVEQIERIMCKPITVLGDQRQRIRGNWKLYAENTRDPYHASLLHLFHNTFGLYRSTQTGKALMDANKRHSLLYSIAASNDDAADKQAYGDSRTFDTEFKLQDMSLLKGRQEFADNVTLVILAVYPNLVLQQIQNTLAVRQTVTYGPDEFELVWTHFGYQDDDAEMQAIRLKQANLIGPAGLISMEDGEAVEIVQNAIVGEASATSYIAMGGGRAEDADHLVTEGAIIGFWDNYREMVGFEVEPT” here?
The value was “not soluble”.

Which “soluble on expression in E. coli” value does the source give for “MGSDKIHHHHHHMSIVDKFGEKVGEIAENDPVKARKLLLAGYRLQEKRLALFPDRKLPMSGQYVAKIVMNNIIQALAKPENAAMVSIFVPGELLTAAGLTPYSVEALSCFIAGTKCEQAFLRQTEKEGFPETMCSYHRVFLGAALNGIVPKPKCMVYTNLACDGNMMTFPYLKERYEIPSFYIDVPYEKNYDSVMYVAKQLRELKSFLQDVTGREITEESVKKAVDKSKIASNNYYRQLHLRKGHDIASTLTNELYALFMCHLLAGTDESVRYTQLLRDDVRRAPAGDGFHVLWMHTMPFLQDAVKDVFNYSDTIHISASDFIADGFRSMESDDPYEALAEKMVYCIYNGSVNQRIDEAKELADTVGADGAVLFAHWGCKNTIGASSLIKRSLEREGLPTMVLDGDGCNPANASDGQISTRLQAFVEMLTEQERN” here?
The value was “not soluble”.

For “MGSDKIHHHHHHMSKGRHVCFLTGTLNAMAGAERMTAVIANALAESGHTVSILSLWDKDSCFPLHPAVGHEALFAERPSFKKAYLTTVAGIRRYCRERKVDVLVQVDTMLALLALPATVGLGVQHIAWEHCHFDEDLGRRARRYARRLAARYCKHVVVLTERDQLRWIEALQPRSQVVIIPNPLPFPFPEEPAPRTGKIVLAMGRLVNAKGFDVLIRAWQRVSAEVPDWKLVIHGEGEERPALSALIDELGLQDSVSLPGICRDATEAYREASIFCLSSRYEGFGLVLIEAMAFGLPIVSTNCEAGPRELLATGTVGLTVPVDAPTMLAASILDLIHQPDLALRFAHAERMFAKGYSLQQIGARWSDLTSARHGSMPQYS”, which “soluble on expression in E. coli” value is on record?
Its value is “not soluble”.

For “MGSDKIHHHHHHMSKLNLVHLNGLRAVEAVGRLGSLQAAASELGVSIGAISQQVIKAEQQLQLQLFERTSRGMVPTDVAEPVLDRLSAGFRHLSGAVALALKSDDTVLTISVAPVFAARWLVHRIGAFSERFPTIRLRMEASDRLIDPSSSDVDLCIRVGRGDWPGVRAELLLEQKVFPVCTPAMAKRLQSPADLLELPIVEDGRAMFSWDVWLAAAGLPGRSVCTRHVFSEASLCLDAALAGQGVLLAWQTIASQQLQQGQLVAPFGPAVPTGLAHYFVSPEGARRNDKVDAFKRWLRDELHEDMTRLAKAIPFLGGPFLKGECG”, which “soluble on expression in E. coli” value is on record?
Its value is “not soluble”.

For “MGSDKIHHHHHHMSLANRYEFVYLFDVSNGNPNGDPDAGNLPRLDPETNQGLVTDVCLKRKLRNYVALEKENEPGFAIYMQEKSVLNHQHKRAYEALSLEPEPKKLPKDQAKARELTAWMCKNFFDVRAFGAVMTTEVNAGQVRGPIQLTFATSIDPVVPLEVSITRMAVTNDKDLEKERTMGRKHIVPYGLYRAHGFVSAKLAERAGFGEEDLQLLWRGLINMFEHDRSAARGEMTARKLIAFKHECALGNAPAHRLFDSVRVSRADGAGDSPARGFTDYRVELDRAVLPAGVEVLELL”, which “soluble on expression in E. coli” value is on record?
Its value is “not soluble”.

For “MGSDKIHHHHHHMSLKMKLIYVVESSVPYGANKCLIEIIDRLDKDKHEVMVVGADEGALSSWLRERNVSYVSLNHRLSIYPVLNSRKDYLLWLPRLFRRVALNVIAMVKFFKICKRFKPDIVHTNVGPCSLGYFVATYLGIKHVWHVREYQDLDFGMSFFPNRKAFLKRLKRSDAVICITNSIAAHFHLTDNENLAVINDGVISDEKEIDIIQKENYFLFAGRLEAAKGIEEAIESFFEFCETDSSGISFYVAGDGNFNYLKKLKEKVSKSNFSNRVRFLGFRDDIFALMRMAKALVVASRCEGFGLITAEAMYQGTLVIGRDTGGTSEILKDSKGIHYGFLFNSIDELTKLMHEVVDLSPDEYTKMARSAQRRTLDKYTINRNFREISDVYNTLM”, which “soluble on expression in E. coli” value is on record?
Its value is “not soluble”.

With “MGSDKIHHHHHHMSNDKEIIKRAVERHDIDSSIFQGRYVNFTQGKYTDEFIYGRYQMFEEIDRILSSLPKGAKVLDLGCGTGHFSTYIKTLCYEVTGLDPSTKMLDYARQNFPEITFVEGYSNALPFEDNTFDLIISIEVLRYLDTKIVLESYEEIYRTLKPNGKMFITHVNTLATEGYYIFYHLKKLAHSFKGKEYHSAYFTSANKEERTLKKIGFKNISCIGRMFATVRTGYKFGKTIGKTYAKLLEKFNPKQRFEKSHFKNFTGHLIVIAEK” as the sequence, how does the “soluble on expression in E. coli” value read?
Its value is “not soluble”.

For “MGSDKIHHHHHHMSNFLLEAGRQTLMLELQEASRLPERLGDDFIRAAETIIHCEGKLIVSGIGKSGHIGKKLAATFASTGTPAFFVHPAEALHGDLGMLDSRDVMLFISYSGSAKELDLIVPRLEEKGIPLLAMTGKSTSPLALAAKAVLDIAVEREACPMHLAPTSSTVNTLMLGDALAMAVMQARGFNEEDFARSHPAGALGARLLNKVHHLMRRDEEVPRVNTEANVMDAMLELSRTGLGLVAVCDEANRVQGVFTDGDLRRWLVAGGTLNDGVTRAMTRNGVTLQADSRAVEAKERLMKHKISAAPVVDENGQLVGAINLQNFYQAGIL”, which “soluble on expression in E. coli” value is on record?
Its value is “not soluble”.

With “MGSDKIHHHHHHMSNHNWTRRDFIKGVGATTAGITLSACNPSGDRSATGLTQEALTIKPVIKSSDLEKPDLIVGYVPVNDCAPFAIAWKKGFFRKYGLNVQLNREASWATSRDGLIFGRLDAAPVVSGAVTNARIGAEGARHAPLCAAMTIHRHGNAMTMNKAMWDFGLRPWYEYQEKYGDGALEAFGRDFRGYFEKQPPENKVWAVVLSSAIYEYFVRYVSAAAGVDPLKEFRVIIVPPPQMVTNVRIGAMQAYMVAEPWNTRAITGNEGIGFTFAQGKEVWLGHPDRLLGVMESFIDQYPKTYRSLVKAMIEACQYCSKPENRQEVAELITDRSFTGARPKNKNLPITKLTAPGIIGSYNYGGFDGKDRTIPAADTTIFYDIPDNLPKQPAEHSTFLWRSRSLWLMTQAARWGQIKEFPKNAEQLAEKGWRTDLYRQIAAEMGIQCPQDDYKVEPPEVFIDKKGFDPSDPVGYLNSFAIRANAPTRFFLS” as the sequence, how does the “soluble on expression in E. coli” value read?
Its value is “not soluble”.
